Measurements published in patent publication US20090297479A1 (published 2009).

Columns and labels:
[1] = target: T1, DC-HIL-Fc RAA mutant (replacement of RGD sequence with RAA) (mouse; human, UniProt Q99P91 23-502); assay: FACS, 10 µg/mL on activated CD4+ T-cells (ligand later identified as SD-4)
T1 construct: extracellular domain; Positions 65 and 66 are derived from the printed position of RGD (aa 64-66); not shown: Fc of human IgG1
T1 sequence (looked up): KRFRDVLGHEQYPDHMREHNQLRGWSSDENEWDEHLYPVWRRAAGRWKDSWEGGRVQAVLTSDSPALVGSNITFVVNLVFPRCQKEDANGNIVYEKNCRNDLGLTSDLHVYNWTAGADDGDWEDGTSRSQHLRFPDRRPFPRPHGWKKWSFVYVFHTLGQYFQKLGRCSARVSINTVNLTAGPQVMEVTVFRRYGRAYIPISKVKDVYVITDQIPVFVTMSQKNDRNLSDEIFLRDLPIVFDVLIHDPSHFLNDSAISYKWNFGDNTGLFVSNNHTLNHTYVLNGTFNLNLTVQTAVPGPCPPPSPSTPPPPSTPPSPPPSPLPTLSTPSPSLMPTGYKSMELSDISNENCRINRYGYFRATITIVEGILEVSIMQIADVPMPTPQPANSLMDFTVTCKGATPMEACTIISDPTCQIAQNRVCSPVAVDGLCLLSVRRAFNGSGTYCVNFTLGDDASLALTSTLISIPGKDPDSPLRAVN
Method: Splenic CD3⁺ T-cells (1×10⁶) were activated by immobilized anti-CD3 Ab (1 or 3 μg/mL) or concanavalin A (10 μg/mL; Sigma, St Louis, Mo.) for 3 days. Freshly isolated and activated CD3⁺ T-cells were then treated with 5 μg/mL Fc blocker (BD Pharmingen, San Diego, Calif.) on ice for 30 minutes to block Fc-binding activity of Fc receptors on T-cells and incubated with 5 μg/mL PE-anti-CD3 Ab (BD Pharmingen) and 10 μg/mL DC-HIL-Fc or control human IgG (hIgG) plus 5 μg/mL FITC-anti-human IgG (both from Jackson ImmunoResearch, West Grove, Pa.). In some experiments, activated and Fc-blocked CD3⁺ T-cells were doubly-stained with 5 μg/mL FITC-labeled anti-CD4 or anti-CD8 Ab (BD Pharmingen) and Fc proteins/PE-anti-human IgG (BD Pharmingen). The treated cells were also stained with anti-CD69 Ab or isotypic control IgG to evaluate activation levels. After staining, binding of Fc proteins to T-cells and expression of marker molecules were analyzed by fluorescence-activated cell sorting (FACS).

recombinant Fc alone = target: T2, recombinant Fc alone (human, UniProt P01857-1 99-330 = IgG part, limits assumed); assay: FACS on T-cells (ligand on activated T-cells later identified as SD-4)
T2 construct: domain: Fc portion

[2] = target: T3, DC-HIL, mouse, endogenous on APC / dendritic cells (mouse, UniProt Q99P91 23-574); assay: cell-based or functional assay
T3 sequence (looked up): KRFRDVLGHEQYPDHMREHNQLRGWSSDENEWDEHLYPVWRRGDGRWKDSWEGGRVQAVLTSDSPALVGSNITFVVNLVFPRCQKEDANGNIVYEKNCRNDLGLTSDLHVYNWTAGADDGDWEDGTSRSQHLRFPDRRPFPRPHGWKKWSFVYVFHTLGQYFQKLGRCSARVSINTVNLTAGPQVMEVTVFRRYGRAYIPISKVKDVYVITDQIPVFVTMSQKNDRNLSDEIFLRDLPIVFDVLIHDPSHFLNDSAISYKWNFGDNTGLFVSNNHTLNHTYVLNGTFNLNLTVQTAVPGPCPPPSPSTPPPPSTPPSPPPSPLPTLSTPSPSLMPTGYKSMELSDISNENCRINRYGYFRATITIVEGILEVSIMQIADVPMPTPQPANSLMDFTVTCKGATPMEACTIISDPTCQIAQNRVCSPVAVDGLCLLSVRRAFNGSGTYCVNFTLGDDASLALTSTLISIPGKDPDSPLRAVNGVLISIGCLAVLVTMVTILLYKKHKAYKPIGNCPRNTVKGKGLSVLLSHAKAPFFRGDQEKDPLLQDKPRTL

Binder | binding result [1] | binding result (recombinant Fc alone) | T-cell activation in the mixed lymphocyte reaction (3H-thymidine) [2] [fold]
syndecan-4 (SD-4), mouse, endogenous on T-cells (receptor, UniProt O35988 24-198, looked up, heparin/heparan sulfate chains (binding of DC-HIL is blocked by heparin), whole, on cells) ESIRETEVIDPQDLLEGRYFSGALPDDEDAGGSDDFELSGSGDLDDTEEPRPFPEVIEPLVPLDNHIPENAQPGIRVPSEPKELEENEVIPKRAPSDVGDDMSNKVSMSSTAQGSNIFERTEVLAALIVGGVVGILFAVFLILLLVYRMKKKDEGSYDLGKKPIYKKAPTNEFYA | binds | no binding | –
SD4-Fc (extracellular domain of SD-4 fused to the Fc portion of human IgG1) (Fc fusion, UniProt O35988 24-145, looked up, not shown: a dimerising Fc or GST) ESIRETEVIDPQDLLEGRYFSGALPDDEDAGGSDDFELSGSGDLDDTEEPRPFPEVIEPLVPLDNHIPENAQPGIRVPSEPKELEENEVIPKRAPSDVGDDMSNKVSMSSTAQGSNIFERTE | – | – | 2
